From PMC11889585, “Characterization of the putative yeast mitochondrial triacylglycerol lipase Tgl2” (The Journal of Biological Chemistry, 2025) come the findings set out here.

This data set concerns the molecule itself. Briefly: non-reducing SDS-PAGE with immunoblot; whole cell lysate, crude or isolated mitochondria of yeast (tgl2Δ, yme1Δ, other deletion strains) expressing HA-tagged Tgl2 variants; reducing agents omitted during SDS-PAGE; anti-HA immunodecoration; dimer-sized band. On the technique in general: In western blotting, separated proteins are transferred to a membrane and probed.

B1: N terminally hemagglutinin (HA) tagged Tgl2 (natural protein, S. cerevisiae, UniProt P54857 1-326, looked up)
chain: MKNDNKANDIIIDSVKVPDSYKPPKNPIVFCHGLSGFDKLILIPSVFHLTNLISNSIVHNMAENFMQDDEDKSDNKYTNLLEIEYWIGVKKFLQSKGCTVITTKVPGFGSIEERAMALDAQLQKEVKKIESKDKRHSLNLIAHSMGGLDCRYLICNIKNRNYDILSLTTISTPHRGSEMADYVVDLFENLNALRVSQKILPICFYQLTTAYMKYFNLVTPNSPKVSYFSYGCSFVPKWYNVFCTPWKIVYERSKGCPNDGLVTINSSKWGEYRGTLKDMDHLDVINWKNKLQDDWSKFFRTTTVGEKVDILNFYLKITDDLARKGF
notes: Tgl2, putative mitochondrial triacylglycerol lipase of the intermembrane space, S. cerevisiae; also called HA-Tgl2; native-like HA-Tgl2; source: S. cerevisiae (tgl2Δ, yme1Δ and other deletion strains), overexpressed from plasmid pYX142; in whole cell lysate, crude or isolated mitochondria; not shown: HA, N-terminal, kept
As for B1, the stoichiometry N (commonly the number of molecules, sites or subunits per partner or assembly) came to 2.
